Source: paper PMC2211785 (The Journal of Experimental Medicine, 2004)

Target: JNK-2 (human (endogenous in HUVEC), UniProt P45984 1-424)
Experiment: co-IP

B1: NFATc2 (natural protein)
chain: MNAPERQPQPDGGDAPGHEPGGSPQDELDFSILFDYEYLNPNEEEPNAHKVASPPSGPAYPDDVLDYGLKPYSPLASLSGEPPGRFGEPDRVGPQKFLSAAKPAGASGLSPRIEITPSHELIQAVGPLRMRDAGLLVEQPPLAGVAASPRFTLPVPGFEGYREPLCLSPASSGSSASFISDTFSPYTSPCVSPNNGGPDDLCPQFQNIPAHYSPRTSPIMSPRTSLAEDSCLGRHSPVPRPASRSSSPGAKRRHSCAEALVALPPGASPQRSRSPSPQPSSHVAPQDHGSPAGYPPVAGSAVIMDALNSLATDSPCGIPPKMWKTSPDPSPVSAAPSKAGLPRHIYPAVEFLGPCEQGERRNSAPESILLVPPTWPKPLVPAIPICSIPVTASLPPLEWPLSSQSGSYELRIEVQPKPHHRAHYETEGSRGAVKAPTGGHPVVQLHGYMENKPLGLQIFIGTADERILKPHAFYQVHRITGKTVTTTSYEKIVGNTKVLEIPLEPKNNMRATIDCAGILKLRNADIELRKGETDIGRKNTRVRLVFRVHIPESSGRIVSLQTASNPIECSQRSAHELPMVERQDTDSCLVYGGQQMILTGQNFTSESKVVFTEKTTDGQQIWEMEATVDKDKSQPNMLFVEIPEYRNKHIRTPVKVNFYVINGKRKRSQPQHFTYHPVPAIKTEPTDEYDPTLICSPTHGGLGSQPYYPQHPMVAESPSCLVATMAPCQQFRTGLSSPDARYQQQNPAAVLYQRSKSLSPSLLGYQQPALMAAPLSLADAHRSVLVHAGSQGQSSALLHPSPTNQQASPVIHYSPTNQQLRCGSHQEFQHIMYCENFAPGTTRPGPPPVSQGQRLSPGSYPTVIQQQNATSQRAAKNGPPVSDQKEVLPAGVTIKQEQNLDQTYLDDVNEIIRKEFSGPPARNQT
Q: Which “fold increase of association by PEDF combined with VEGF or bFGF” value does the source give for B1 here?
A: > 20 fold
